Test: yeast display, Sf9 membrane polyspecificity reagent, FACS + sequencing; frameworks hold sequencing errors
How it was run: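 Nanobodies came from a synthetic yeast display library in Saccharomyces cerevisiae BJ5465, induced with galactose for 36–48 hours and stained for 1 hour at 4 °C with 10% biotinylated, detergent-solubilized Sf9 membrane reagent. Cells were enriched on streptavidin microbeads and then FACS-sorted, with low and high (top ~1%) gates set on anti-HA fluorescence for expression and streptavidin fluorescence for reagent binding. Each polyreactivity label reflects the gate a clone came from. Genes were amplified by colony PCR, sequenced by MiSeq 2 × 250 and filtered by CDR length.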

Sequence | polyreactivity (PSR sort gate)
QVHLVESGGGLVQAGGSLRLSCAASGITFFWYTMGWYRQAPGKDRELVAAISESGGDTYYADSVKGRFTISRDNAKNTVYLQMKILKPEDTAVYYCAADDSYYGLDYWGQGTQVTVSS | low polyreactivity
QVQLEESGGGLVQAGGSLRLSCAASGLTFVYNAMGWYRQAPGKERELVAAISRVGSTNYADSVKGRFTISRDNAKNTVYLQMNSLKPEDTAVYYCNAERSRRYSGWVNYAPLNYWGQGTQVTVSS | low polyreactivity
QDQLVESGGGLVQAGGSLGLRCAATGSTFTYYTMGWYRQAAGKERELVAAISRTTGSTYYADSVKGRFTISRDNAKNTVYLQMNSLKPEDTAVYYCAAQSYKILLYFIGTAGDGYWGQGTQVTVSS | low polyreactivity
QVQLVESGGGLVQAGGSLRLSCAASGRIFYLYTMGWYRQAPGKEREFSTYYADSVKGRFTISRDNAKNTVYLQMNSLKPEDTAVYYCNKGSDGFTTGEGDYWGQGTQVTVSS | low polyreactivity
QVQLVESGGGLVQAGGSLRLSCAASGRTFKYNAMGWYRQAPGKERELVAVIRYSGGTTYYADSVKGRFTISRDNAKNTVYLQMNSLKPEDTAVYYCNADGPYVLPGWYFRTDNSWGQGTQVTVSS | low polyreactivity
QVQLVESGGGLVQAGGSLRLSCAASGSIFRSYAMGWYRQAPGTERELVDGISYSGGSTYYADSVKGRFTISRDNAKNTVYLQMNSLKPEDTAVYYCNVDGGTYFFFVGAWGEYDYWGQGTQVTVSS | low polyreactivity
QVQLVESGGGLVQAGGSLRLSCAASGRTFRTYTMGWYRQAPGKERELVAAIRSIDGITYYADSVKGRFTISRDNAKTTVDLPKNSLKPEDTAVYYCAARYTASKPMGYWGQGTQVTVSS | high polyreactivity
QVQLVESGGGLVQAGGSLRLSCAASGSILDSNAMGWYRQAPGKERELVAAITSGGSTYYADSVKGRFTISRDNAKNTVYLLMNSLKPEDTAVYYCAAAYLGYGAVQPSYEGGYWGQGTQVTVSS | low polyreactivity
QVQLVESGGGLVQAGGSLRLSCAASGFTFANNAMGWYRQAPGKERELVAAISRSGGSTYYADSVKGRFTISRDNAKNTVYLQMNSLKPEDTAVYYCAKAVFYGPCERNYGLDYWGQGTQVTVSS | high polyreactivity
QVQLVESGGGLVQAGGSLRLSCAASGSIFDDYAMGWYRPAPGKEREVVAAISSGGSTYYADSVKGRFTISRDNAKNTVYLQMNSLKPEDTAVYYCNALYPQVGFGYWGQGTQVTVSS | low polyreactivity
QVQLVESGGGLVQAGGSLRLSSAASGRTFSSYAMGWYRQAPGKERELVAAINWSGASTYYADSVKGRFTISRDNAKNTVYLQMNSLKPEDTAVYYCAKSLYVGKYWQIRSSVDYWGQGTQVTVSS | low polyreactivity
QVQLVESGGGLVQAGGSLRLSCAASGRILHRNAMGWYRQAPGKERELVSAIRSRGGGTYYADSVKGRFTISRDNAKNTVYLQMKSLKPEDTAVYYCNTDRSTRTVGPGLYGYWGQGTQVTVSS | low polyreactivity
QVQLVESGGGLVQAGGSLRLSCAASGRIFADYAMGWYRQAPGKERELVATITSGDRTYYADSVKGRFTTSRDNAKNTVYLQMNSLKPEDTAVYYCAAYKPWYVGLYPWYDYWGQGTQVTVSS | low polyreactivity
QVQLVESGGGLVQAGGSLRLSCAASGGIFSSYAMGWYRQAPGKERELVATITSRGGSTYYADSVKGRFTISRDNAKNTVYLQMNSLKPEDTAVYYCAKEYRYYRRRYDYWGQGTQVTVSS | high polyreactivity
QVQLVESGGGLVQAGGSLRLSCAASGITFPYYAMGWYRQAPGKERELVAAISAGGTRTYYADSVKGRFTISRDNAKNTVYLQMNSLKPEDTAVYYCAARVWPIVQNYYWGQGTQVTVSS | high polyreactivity
QVQVVESGGGLVQAGGSLRLSCAASGGTFSPYDMGWYRQAPGKERELVASITRSGGSTYYADSVKGRFTISRGNSKNTVYLQMNSLKPEDTAVYYCAAQGYWTYWPYLLRLYDYWGQGTQVTVSS | low polyreactivity
QVQLVESGGGLVQAGGSLRLSCAASGGTFSTNTMGWYRQAPGKEMELVAAITEGTGNTYYADSVKGRFTISRDTAKNTVYLQMNSLKPEDTAVYDCATVAYSGSDFSGSAGAGDYWGQGTQVTVSS | low polyreactivity
QVQLVESGGRLVQAGGSLRLSCADSGSIFEYYAMGWYRQAPGKEREFVAAISDNGDSTYYADSVKGRFTISRDNAKNTVYLQMNSLKPEDTEVYYCNKTPVDDPPWCYDSWGQGTQVTVSS | low polyreactivity
QVQLVESGGGIVQAGGSLRLSCAASYYDMGWYRQAPGKERELVASISSGGSTNYADSVKGRFTISRDNAKNTVYLQMNSLKPEDTAVYYCAADVADGVWVKIADEYWGQGTQVTVSS | low polyreactivity
QVQLVESGGGLVQAGGSLRLSCAASGYDMGWYRQAPGKERELVAAISRGGSTSYADSVKGRFTISRENAKNTVYLQMNSLKPEDTAVYYCAARYGSYRVGYDYWGQGTQVTVSS | low polyreactivity
QVQLVESGGGLVQAGGSLRLSCAASGSTFGYYTMGWYRQAPGKERELVAAISWSGGSTYYADSVKGRFTISRDNAKNTVYLQMNSLKPEDTAVYYCAALGYTYKYYSYYWGQGTQVTVSS | high polyreactivity
QVQLVESGGGLVQAGGSLRLSCAASGRTFVIYAMGWYRQAPGKEREFVAAISRSGGSTYYADSVKGRFTISRDNAKNTVYLQMNSLKPEDTAVYYCNTRTPYWVKSDYWGQGTQVTVSS | low polyreactivity

Sequence | polyreactivity (PSR sort gate)
QVQLVESGGGLVQAGGSLRLSCAASGSTFHRNSMGWYRQAPGKERELVASISIGGSTNYADSVKGRFTISRDNAKNTVYLQMNSLKPEDTAVYYCATEPNPRRPRVDYDYWGQGTQVTVSS | low polyreactivity
QVQLVESGGGLVQAGGSLRLSCAASGSIFPGYAMAWYRQAPGKERELVAAISRSGGITYYADSVKGRFTISRDNAKNTVYLQMNSLKPEDTSVYYCAKTLPSNGHYDYWGQGTQVTVSS | low polyreactivity
QVQLVESGGGLVQAGGSLRLSCAASGITFSSYAMGWSRQAPGKERELVAAIRRRGGTTYYADSVKGPFTISRDNAKNTVYLQMNSLKPEDTAVYYCAARSKSAYWGQGTQVTVSS | high polyreactivity
QVQLVESGGGLVQAGGSLPLSCAASGSTFNGYAMGWYIQAPGKEWELVAVISSGGTTNYADSVKGRFTISRDNAKNTVYLQMNSLKPEDTAVYYCAADIGHRYHYRFDYWGQGTQVTVSS | low polyreactivity
QVQLVESGGRLVQERGSLRLSCAASGFIFGRYAMGWYIQAPGKERELVAAITQSGGSTYYADSVKGRFTISRDNAKNTVYVQMNCLNPEDTAVYYCIAPIAYWRVHYKYGYWGQGTQVTVSS | low polyreactivity
QVQLVESGGGLVQAGGSLRLSCAASGRTFSIYAMGWYRQAPGKERELVAAISNGGRTKYADSVKGRFTISRDNAKNTVYLQMNSLKPEDTAVYYCNALAYNVPRYDYWGQGTQVTVSS | high polyreactivity
QVQLVESGGGLVQAGGSLRLSCAASGRIFGSYAMGWYRQAPWKERELVAAINWRGGSTFYADSVKGRFTISRDNAKNTVYLLMNSLKPEDTAVYYCARSGYRQSGDYWGQGTQVTVSS | low polyreactivity
QVQLVESGGGLVQAGGSLRLSCAASGSTFYTYAMGWYRQAPGKEMELVAAIRSAGSTYYADSVKGRFTISRDNAKNTVYLQMNSLKPEDTAVYYCNTVARSSVGYEYWGQGTQVTVSS | high polyreactivity
QVQLVESGGGLVQAGGSLRLSCAASGSIFDFNAMGWYRQAPGKERELVAAIDDIDDSTYYSDSVKGRFTISRDNAKNTVYLQMNSLKPEDTAVYYCAAELRPGYRSSYGLIYDYWGQGTQVTVSS | low polyreactivity
QVQLVESGGGLVQAGGSLRLSCAASGSTFGANALGWYRQAPGKERELVAAITGGSTFYADSVKGRFTISRDNAKNTVYLQMNSLKPEDTSVYYCAVDYTYSYVDYWSEYDYWGQGTQVTVSS | low polyreactivity
QVQLVESGGGLVQAGGSLRFSCSASGRTFLIYAMGWYRQAPGKARELVAAINFSGGNTYYADSVKGRFTISRDNAKNTVYLQMNSLKPEDTAVYYCAAGVYSFRYDYWGQGTQVTVSS | low polyreactivity
QVQLVESGGGLVQAGGSLRISCAPSGITFKDYAMGWYRQAPGKERELVAVISYSGGSTYYADTVKGRFTISRDNAKNTVYLQMNSLKPEDTAVYYCAARVGPEYDWGQGTQVTVSS | low polyreactivity
QVQLVESGGGLVQAGGSLRLSCAASGFTFWYYAMGWYRPAPGNERELVASISRTGGTTYYADSVKGRFTISRDNAKNTVDLQMTSLKPEDTAVYYCNARPKVYDREYDYWGQGTQVTVSS | high polyreactivity
QVQLVESGGGLVQAGGSLRLSCAASGSIYDFYAMGWYRQAPGKERELVAAISWSGTSTYYADSVKGRFTISRDNAKNTVYLQMNSLKPEDTAVYYCAVVAGQSYFNRYDYWGQGTQVTVSS | low polyreactivity
QVQLVESGGGLVQAGGSLRLSCAASGSIFLTYDMGWYRQAPGKERELVAAITGSGDSTYYADSVKGRFTISRDNAKNTVYLQMNSLKPEDNAVYYCNADGPSTPWVDYGYWGQGTQVTVSS | low polyreactivity
QVQLVESGGGLVQAGGSIRLSCAASGITFYRNAMGWYRQAPGKEKELVAAITWNGGRTYYADSVKGRFTISRDNAKNTVYLQMNSLKPEDTAVYYCAAAYPTYRHYYWGQGTQVTVSS | low polyreactivity
QVQLVDSGGGLVQAGGSLRLSCAASVRIFTINAMGWYRPAPGKDRELVAAISDGGGSTYYADSVKGRFTISRYNAKNTVYLQMNSLKPEDTAVYYCARKSWPKERRVDPGYDYGGQGTQVTVSS | low polyreactivity
QVQLVESGGGLVQAGRSLRLSCAASGSIFRYYAMGWYRQAPGKERELVAAISSSGGSTYYADSVKGRFTISRDNAKNTVYLQMNSLKPEDTAVYYCAAVWLSGYGDNYWGQGTQVTVSS | high polyreactivity
QDQLVESGGGLVQAGGSLRLSCAASGRIFTGNAMGWYRQAHGKERELVAAISASGSSTYYADSVKGRFTISRDNAKNTVYLQMNSLKPEDTAVYYCAADGWYGYYYWGQGTLVTVSS | high polyreactivity
QVHLVESGGALVQAGGSLRLSCAASGSTFWFYAMLWYRQAPGKERELVAAITRSAGSTYYADSVKGRFTISRDNAKYTVFLQMNSLKPEDTAVYYCAAQRESLYGGFDSWGQGTQVTVSS | low polyreactivity
QVQLVESGGGLVQAGGSLRLSCAASGFIFRYYTMGWYRQAPGKERELVATITSGGSTYYADSVKGRFTISRDNAKNTVYVQMNSLKPEDTAVYYCAKVRDVLWRFNYWGQGTQVTVSS | high polyreactivity

From the nanobody polyreactivity screen of Harvey et al. (2022)
